Assay [1] concerns the target SARS-CoV-2 Omicron (B.1.529) spike protein (on reporter virus particles) (SARS-CoV-2, UniProt P0DTC2 14-1273). Nature of the assay: cell-based or functional assay.
The target in a further assay is SARS-CoV-2 RBD-mFc (SARS-CoV-2, UniProt P0DTC2 319-541). Nature of the assay: Octet BLI, IgG, avid. (In BLI a coated tip is dipped into the sample, and binding shifts an interference pattern.)
In assay [2] the target is SARS-CoV-2 Alpha (B.1.1.7) spike protein (on reporter virus particles) (SARS-CoV-2, UniProt P0DTC2 14-1273). Nature of the assay: cell-based or functional assay.
Assay [3] deals with SARS-CoV-2 Beta (B.1.351) spike protein (on reporter virus particles) (SARS-CoV-2, UniProt P0DTC2 14-1273). In words: cell-based or functional assay.
Assay [4] has as its target SARS-CoV-2 B.1.351 (Beta) RBD (SARS-CoV-2, UniProt P0DTC2 319-541). Nature of the assay: Octet BLI single point, monovalent.
For assay [5], the target named is SARS-CoV-2 P.1 Spike (Gamma) (SARS-CoV-2, UniProt P0DTC2 16-1213). Nature of the assay: Octet BLI single point, monovalent.
Assay [6] deals with SARS-CoV-2 B.1.617.2 (Delta) RBD (SARS-CoV-2, UniProt P0DTC2 319-541). Nature of the assay: Octet BLI single point, monovalent.
In assay [7] the target is SARS-CoV-2 B.1.617.1 (Kappa) RBD (SARS-CoV-2, UniProt P0DTC2 319-541). Nature of the assay: Octet BLI single point, monovalent.
The target in assay [8] is SARS-CoV-2 L452R RBD (Epsilon) (SARS-CoV-2, UniProt P0DTC2 319-541). Nature of the assay: Octet BLI single point, monovalent.
Assay [9] has as its target SARS-CoV-2 B.1.1.7 N501Y (Alpha) RBD (SARS-CoV-2, UniProt P0DTC2 319-541). In words: Octet BLI single point, monovalent.
The target in assay [10] is SARS-CoV-2 Epsilon (B.1.427/429) spike protein (on reporter virus particles) (SARS-CoV-2, UniProt P0DTC2 14-1273). Nature of the assay: cell-based or functional assay.
Assay [11] concerns the target SARS-CoV-2 Gamma (P.1) spike protein (on reporter virus particles) (SARS-CoV-2, UniProt P0DTC2 14-1273). In words: cell-based or functional assay.

Broadly, the Kd is the constant that tells how readily two partners part at equilibrium.

B1: A-18 (antibody, V domains shown)
VH: EVQLLESGGGLVQPGGSLRLSCAASGFTFSRYWMHWVRQAPGKGLVWVSRINSDGSSTTYADSVKGRFTISRDNAKNTLYLQMNSLRAEDTAVYYCARELYYYDSRGAEEGEGWFDPWGQGTLVTVSS
VL: QSVLTQPPSVSGAPGQRVTISCTGISSNIGAGYDVHWYQQLPGTAPKLLIYGNSNRPSGVPDRFSASKSGTSAPLAITGLQAEDEADYYCQSSDRSLSGSVFGTGTKLTVL
On to B1, for which the “PsV IC50, Test 1” value in assay [1] was 1.96 nM. Besides, the “PsV IC50, Test 2” value in [1] is 8.84 nM. The Kd in the assay with SARS-CoV-2 RBD-mFc was 0.0757 nM; in [4], 0.444 nM; in [5] it was 0.553 nM; in assay [6], 0.649 nM; in assay [7], 0.714 nM; in [8] it was 1.22 nM. Further, binding in assay [9] was characterised by a dissociation constant (Kd) of 1.03 nM. In addition, the “PsV neutralization IC50” value in assay [2] is 0.316 mg/L; in [3], 0.259 mg/L. In addition, the results for the “PsV neutralization IC90” value in [2] and in assay [3] were 2.04 mg/L and 1.65 mg/L, respectively.

B2: A-9 (antibody, V domains shown)
VH: EVQLVESGGGLVKPGRSLRLSCAASGFTFADYAMSWFRQAPGKGLEWVGFIRSKPYGGTTEYAASVKGRFTISRDDSKSIAYLQMNSLKTEDTAVYYCSRDPWYCSGGDCYAVTGSWFDPWGQGTLVTVSS
VL: DIVLTQSPSSLSASVGDRVTITCQASQDIKKYLNWYQQKPGKAPKLLIYDVSNLETGVPSRFSGSGSGTDFTFTISSLQPEDVAIYYCQQYDNLPQTFGQGTKVDIK
With B2, in [1], the “PsV IC50, Test 1” value is 20.8 nM. Moreover, the Kd is 0.147 nM with SARS-CoV-2 RBD-mFc; 17.8 nM in [4]; 15 nM in assay [5]; 12.9 nM in [6]; 6.28 nM in assay [7]; 10 nM in assay [9]. Also, the “PsV neutralization IC50” value came to 0.019 mg/L in assay [2] and 0.028 mg/L in assay [3]. The “PsV neutralization IC90” value in assay [2] stood at 0.118 mg/L; in [3], 0.184 mg/L.

B3: A-22 (antibody, V domains shown)
VH: not shown
VL: EIVLTQSPGTLSLSPGERATLSCRASQTVRSDLAWYQQKPGQAPRLLIYGASTRATDISDRFSGSGSGTEFTLTISSLQSEDFAVYYCQQYYEWPPHSDSFGGGTKVEIK
For the molecule B3, the “PsV neutralization IC50” value in [10] is 1.49 mg/L; in [2], 1.53 mg/L; in assay [11], 0.335 mg/L; in [3], 2.13 mg/L. Moreover, the “PsV neutralization IC90” value in assay [10] is 25.3 mg/L; in assay [2] it was 9.54 mg/L; in assay [11], 0.736 mg/L; in assay [3] it was 12.8 mg/L. Also, the Kd in assay [4] was 0.25 nM; in [5], 0.258 nM; in assay [7], 0.218 nM; in assay [8], 0.756 nM; in assay [9], 0.35 nM.

B4: A-6 (antibody, V domains shown)
VH: QVQLVQSGGGVVQPGRSLRLSCAASGFTFSNFAMHWVRQAPGKGLEWVAVILYDGINKYYADSVKGRFTISRGNSKNTLSLQMNSLRAEDTAVYYCARAQNYYDRSGTLQLDAFDIWGQGTMVTVSS
VL: DIVMTQSPSSLSASVGDRVTITCRASQGIRNDLGWYQQKPGKAPKLLIYAASSLQSGVPSRFSGSGSGTDFTLTISSLQPEDFATYYCLQDYNYPLTFGGGTKVEIK
With B4, the Kd stood at 0.146 nM in the assay with SARS-CoV-2 RBD-mFc, 2.05 nM in [5], 1.45 nM in assay [8] and 1.46 nM in [9]. For the same molecule, the “PsV neutralization IC50” value is 0.192 mg/L in assay [2] and 0.171 mg/L in assay [3]. The results for the “PsV neutralization IC90” value in [2] and in assay [3] were 1.21 mg/L and 1.47 mg/L, respectively.

(Values after patent publication US20260217797A1 (Takeda / Millennium, published 2026).)
